T1: SCUBE1 (UniProt Q8IWY4 24-988, limits assumed)
T1 construct: also called SCUBE1 protein
T1 sequence (looked up): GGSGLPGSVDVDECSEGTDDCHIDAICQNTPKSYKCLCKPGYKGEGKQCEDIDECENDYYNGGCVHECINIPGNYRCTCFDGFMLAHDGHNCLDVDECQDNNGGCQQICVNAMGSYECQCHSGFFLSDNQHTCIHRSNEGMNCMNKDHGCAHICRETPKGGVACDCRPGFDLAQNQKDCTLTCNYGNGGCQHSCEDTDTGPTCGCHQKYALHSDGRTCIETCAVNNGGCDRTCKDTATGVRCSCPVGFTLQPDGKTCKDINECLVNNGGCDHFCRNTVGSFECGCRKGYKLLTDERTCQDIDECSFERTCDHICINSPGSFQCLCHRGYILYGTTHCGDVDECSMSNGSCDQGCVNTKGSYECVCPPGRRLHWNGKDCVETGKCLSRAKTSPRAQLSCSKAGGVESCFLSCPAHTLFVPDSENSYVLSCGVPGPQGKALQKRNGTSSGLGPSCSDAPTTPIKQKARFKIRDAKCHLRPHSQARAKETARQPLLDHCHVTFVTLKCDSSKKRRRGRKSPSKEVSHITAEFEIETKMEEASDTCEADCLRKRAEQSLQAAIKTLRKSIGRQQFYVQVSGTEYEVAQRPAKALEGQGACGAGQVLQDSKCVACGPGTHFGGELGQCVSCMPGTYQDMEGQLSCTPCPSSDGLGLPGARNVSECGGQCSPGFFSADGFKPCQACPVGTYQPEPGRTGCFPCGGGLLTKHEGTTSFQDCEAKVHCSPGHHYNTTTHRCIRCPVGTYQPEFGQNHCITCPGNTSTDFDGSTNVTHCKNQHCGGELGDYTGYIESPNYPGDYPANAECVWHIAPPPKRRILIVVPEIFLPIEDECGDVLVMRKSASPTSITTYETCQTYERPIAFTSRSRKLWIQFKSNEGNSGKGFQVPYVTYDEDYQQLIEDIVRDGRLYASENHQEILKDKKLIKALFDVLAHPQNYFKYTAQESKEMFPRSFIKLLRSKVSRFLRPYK

T2: SCUBE3 (UniProt Q8IX30 21-993, limits assumed)
T2 construct: also called SCUBE3 protein
T2 sequence (looked up): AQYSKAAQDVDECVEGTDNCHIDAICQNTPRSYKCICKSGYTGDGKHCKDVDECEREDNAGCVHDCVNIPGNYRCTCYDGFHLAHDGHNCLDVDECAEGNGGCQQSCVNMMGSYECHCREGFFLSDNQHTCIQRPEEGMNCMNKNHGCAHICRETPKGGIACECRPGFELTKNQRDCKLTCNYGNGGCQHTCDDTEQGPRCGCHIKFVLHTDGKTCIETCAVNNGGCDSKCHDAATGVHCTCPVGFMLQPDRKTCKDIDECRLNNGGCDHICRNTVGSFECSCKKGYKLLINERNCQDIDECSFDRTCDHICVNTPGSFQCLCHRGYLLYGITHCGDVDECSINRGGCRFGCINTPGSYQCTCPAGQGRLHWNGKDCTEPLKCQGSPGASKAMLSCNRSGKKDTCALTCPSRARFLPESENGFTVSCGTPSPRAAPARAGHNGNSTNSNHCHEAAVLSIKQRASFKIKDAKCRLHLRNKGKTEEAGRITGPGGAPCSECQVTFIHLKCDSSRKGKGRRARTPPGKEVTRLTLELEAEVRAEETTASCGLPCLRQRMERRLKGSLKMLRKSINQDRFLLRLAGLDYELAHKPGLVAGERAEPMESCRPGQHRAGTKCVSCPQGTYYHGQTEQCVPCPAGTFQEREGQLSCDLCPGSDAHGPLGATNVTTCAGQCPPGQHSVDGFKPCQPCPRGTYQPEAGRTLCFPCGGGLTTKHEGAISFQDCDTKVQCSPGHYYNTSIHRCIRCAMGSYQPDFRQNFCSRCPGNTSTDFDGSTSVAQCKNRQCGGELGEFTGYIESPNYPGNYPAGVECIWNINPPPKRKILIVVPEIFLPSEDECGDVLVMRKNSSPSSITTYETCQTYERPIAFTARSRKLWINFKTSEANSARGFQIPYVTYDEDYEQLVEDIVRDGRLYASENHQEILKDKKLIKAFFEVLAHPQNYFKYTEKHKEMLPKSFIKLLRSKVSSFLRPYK

B1: anti-SCUBE2 mAb clone CR-#5 (antibody, IgG2b, V domains shown)
VH: EVQRVESGGDLVKPGGTLKLSCAASGFTFRNYGMSWVRQTPDKRLEWVATISSGGVYIYYPDSVKGRFTISRDNAKNTLFLQMSSLRSEDSAMYYCARDDYDGRGYFDYWGQGTTLTVSS
VL: DIVMSQSPSSLAVSAGEKVTMSCKSSQSLLNSRTRKNYLAWYQQKPGQSPKLLIYWASTRESGVPDRFTGSGSGTDFTLTISSVQAEDLAVYYCKQSYNLPTFGSGTKLDIK
B2: anti-SCUBE2 mAb clone EGF-C3 (antibody, IgG2a, V domains shown)
VH: EVKLVESGGGLVQPGGSRKLSCVASGFTISSFGMHWVRQAPERGLEWVAYISSGSNTIYYADTVKGRFTISRDNPKNTLFLQMTSLWSEDTAMYYCARSGTLDGWFTYWGRGTLVTVST
VL: DIVMTQPPLSLPVSLGDQASISCRSSQSILHSNGNTYLEWYLQKPGQSPKLLIYKLFNRFSGVPDRFNGSGSGTDFTLKISRAEAEDLGVYYCLQGSHVPPTFGAGTKLEIK
B3: human SCUBE2 (Signal peptide-CUB-EGF domain-containing protein 2) (receptor)
chain: RAAGPQEDVDECAQGLDDCHADALCQNTPTSYKCSCKPGYQGEGRQCEDIDECGNELNGGCVHDCLNIPGNYRCTCFDGFMLAHDGHNCLDVDECLENNGGCQHTCVNVMGSYECCCKEGFFLSDNQHTCIHRSEEGLSCMNKDHGCSHICKEAPRGSVACECRPGFELAKNQRDCILTCNHGNGGCQHSCDDTADGPECSCHPQYKMHTDGRSCLEREDTVLEVTESNTTSVVDGDKRVKRRLLMETCAVNNGGCDRTCKDTSTGVHCSCPVGFTLQLDGKTCKDIDECQTRNGGCDHFCKNIVGSFDCGCKKGFKLLTDEKSCQDVDECSLDRTCDHSCINHPGTFACACNRGYTLYGFTHCGDTNECSINNGGCQQVCVNTVGSYECQCHPGYKLHWNKKDCVEVKGLLPTSVSPRVSLHCGKSGGGDGCFLRCHSGIHLSSGLQGAYSVTCGSSSPLRNKQQKSNDSAFGDVTTIRTSVTFKLNEGKCSLKNAELFPEGLRPALPEKHSSVKESFRYVNLTCSSGKQVPGAPGRPSTPKEMFITVEFELETNQKEVTASCDLSCIVKRTEKRLRKAIRTLRKAVHREQFHLQLSGMNLDVAKKPPRTSERQAESCGVGQGHAENQCVSCRAGTYYDGARERCILCPNGTFQNEEGQMTCEPCPRPGNSGALKTPEAWNMSECGGLCQPGEYSADGFAPCQLCALGTFQPEAGRTSCFPCGGGLATKHQGATSFQDCETRVQCSPGHFYNTTTHRCIRCPVGTYQPEFGKNNCVSCPGNTTTDFDGSTNITQCKNRRCGGELGDFTGYIESPNYPGNYPANTECTWTINPPPKRRILIVVPEIFLPIEDDCGDYLVMRKTSSSNSVTTYETCQTYERPIAFTSRSKKLWIQFKSNEGNSARGFQVPYVTYDEDYQELIEDIVRDGRLYASENHQEILKDKKLIKALFDVLAHPQNYFKYTAQESREMFPRSFIRLLRSKVSRFLRPYK
notes: Signal peptide a.a; 1-37 and mature protein a.a; also GST.SCUBE2-CUB); also called FLAG.SCUBE2-FL; FLAG-tagged SCUBE2
B4: anti-SCUBE2 mAb clone SP-B2 (antibody, IgG1, V domains shown)
VH: EVQRVESGGGLVKPGGSLKLSCAASGFTFRNYAMSWVRQTTEKKLEWVATINDVGSYTYFPASVKGRFTVSRDNTKNTLYLQMSSLRSEDTAMYYCVTSSDTVPHHHALDYWGQGSSVTVSS
VL: DIVMTQPPASLAVSLGQRATVFCRASQNVDSRGISFMHWYQQKPGQPPKLLIYAASNLESGIPARFRGSGSGTDFTLNIHPVEEEDVATYYCQQSVEDLTFGGGTKLELK
B5: anti-SCUBE2 mAb clone SP-A1 (antibody, IgG1, V domains shown)
VH: EVQLQQSGPELVKPGASVKVSCKASGYAFTSYNMYWVKQSHGKSLEWIGYIDPYNGDTNNNQKFKGKATLTVDKSSSTAYMHLNSLTSEDSAVYYCARSYRYLAWFAYWGQGTLVTVSA
VL: DIVMTQSPLSLPVSLGDQASISCRSSQSIVHSNGNTYLEWYLQKPGQSPKLLIYTVSNRFSGVPDRFSGSGSGTDFTLRISRVEAEDLGVYYCFQGSHIPYTFGGGTKLELK
notes: Mouse hybridoma mAb, IgG1
B6: anti-SCUBE2 mAb clone SP-B1 (antibody, IgG1, V domains shown)
VH: B5 VH
VL: B5 VL
notes: also called SP.B1 mAb
B7: recombinant VEGF165 protein (ligand, UniProt P15692-4 27-191, looked up)
chain: APMAEGGGQNHHEVVKFMDVYQRSYCHPIETLVDIFQEYPDEIEYIFKPSCVPLMRCGGCCNDEGLECVPTEESNITMQIMRIKPHQGQHIGEMSFLQHNKCECRPKKDRARQENPCGPCSERRKHLFVQDPQTCKCSCKNTDSRCKARQLELNERTCRCDKPRR
notes: Bought reagent; also called VEGF-A165

How the values were obtained:
[1] = target: B3; assay: domain mapping (FIG. 12A); method not described
[2] = target: VEGFR1 (UniProt P17948 27-1338, limits assumed); assay: co-immunoprecipitation with anti-SCUBE2 antibody
Sequence of VEGFR1 (P17948 27-1338 limits assumed): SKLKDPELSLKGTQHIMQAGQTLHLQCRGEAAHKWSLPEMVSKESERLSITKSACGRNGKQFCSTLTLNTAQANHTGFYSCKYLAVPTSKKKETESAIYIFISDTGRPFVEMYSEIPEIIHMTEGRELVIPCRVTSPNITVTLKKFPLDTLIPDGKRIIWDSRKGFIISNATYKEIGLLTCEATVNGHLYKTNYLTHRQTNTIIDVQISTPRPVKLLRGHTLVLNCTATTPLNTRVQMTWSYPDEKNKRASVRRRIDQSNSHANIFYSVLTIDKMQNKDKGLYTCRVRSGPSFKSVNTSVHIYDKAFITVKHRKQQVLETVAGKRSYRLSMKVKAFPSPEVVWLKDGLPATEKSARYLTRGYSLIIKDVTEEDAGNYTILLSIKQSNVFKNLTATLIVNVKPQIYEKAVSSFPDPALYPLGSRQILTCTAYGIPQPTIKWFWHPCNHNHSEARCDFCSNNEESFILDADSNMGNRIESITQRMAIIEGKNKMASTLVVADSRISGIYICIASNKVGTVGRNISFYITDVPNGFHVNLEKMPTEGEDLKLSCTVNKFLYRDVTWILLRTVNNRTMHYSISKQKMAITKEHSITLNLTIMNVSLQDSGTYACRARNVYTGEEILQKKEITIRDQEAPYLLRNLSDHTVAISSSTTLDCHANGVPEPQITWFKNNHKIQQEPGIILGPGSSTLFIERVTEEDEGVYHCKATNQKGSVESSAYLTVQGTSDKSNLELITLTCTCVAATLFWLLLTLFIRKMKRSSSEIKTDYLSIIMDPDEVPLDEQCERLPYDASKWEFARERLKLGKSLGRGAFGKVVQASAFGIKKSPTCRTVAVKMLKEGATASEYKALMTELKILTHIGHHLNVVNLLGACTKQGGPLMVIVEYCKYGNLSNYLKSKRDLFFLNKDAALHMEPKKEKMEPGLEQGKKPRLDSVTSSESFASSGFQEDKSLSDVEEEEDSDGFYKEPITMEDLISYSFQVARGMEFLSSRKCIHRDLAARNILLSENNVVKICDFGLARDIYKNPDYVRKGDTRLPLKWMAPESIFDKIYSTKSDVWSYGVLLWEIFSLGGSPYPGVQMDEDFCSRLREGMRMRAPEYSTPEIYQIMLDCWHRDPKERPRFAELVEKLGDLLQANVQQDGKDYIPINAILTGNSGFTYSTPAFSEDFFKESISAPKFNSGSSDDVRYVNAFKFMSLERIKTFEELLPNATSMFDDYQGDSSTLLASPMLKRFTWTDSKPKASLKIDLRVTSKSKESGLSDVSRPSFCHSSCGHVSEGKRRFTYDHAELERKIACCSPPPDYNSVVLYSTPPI

[3] = target: EGFR (UniProt P00533 25-1210, limits assumed); assay: co-immunoprecipitation with anti-SCUBE2 antibody
[4] = target: T1, SCUBE1; assay: western blot of recombinant SCUBE proteins expressed in HEK-293T cells (FIG. 13A)
[5] = target: T2, SCUBE3; assay: as above
[6] = target: T1, SCUBE1; assay: co-immunoprecipitation
[7] = target: T2, SCUBE3; assay: co-immunoprecipitation

Binder: B1
- binding result [1]: binds

Binder: B2
- binding result [1]: binds

Binder: B3
- binding result [2]: no binding
- binding result [3]: no binding

Binder: B4
- binding result [1]: binds

Binder: B5
- binding result [1]: binds

Binder: B6
- binding result [1]: binds
- binding result [4]: no binding
- binding result [5]: no binding

Binder: B7
- binding result [6]: no binding
- binding result [7]: no binding
